Measurements: patent publication US10830762 (dated 2020)
Positions count from the first letter of the chain named. Names may count otherwise.

B1: full length CRBN W386A (CRBN^W386A), FLAG-tagged, re-expressed in DF15R cells (other, human, UniProt Q96SW2 1-442, looked up)
chain: MAGEGDQQDAAHNMGNHLPLLPAESEEEDEMEVEDQDSKEAKKPNIINFDTSLPTSHTYLGADMEEFHGRTLHDDDSCQVIPVLPQVMMILIPGQTLPLQLFHPQEVSMVRNLIQKDRTFAVLAYSNVQEREAQFGTTAEIYAYREEQDFGIEIVKVKAIGRQRFKVLELRTQSDGIQQAKVQILPECVLPSTMSAVQLESLNKCQIFPSKPVSREDQCSYKWWQKYQKRKFHCANLTSWPRWLYSLYDAETLMDRIKKQLREWDENLKDDSLPSNPIDFSYRVAACLPIDDVLRIQLLKIGSAIQRLRCELDIMNKCTSLCCKQCQETEITTKNEIFSLSLCGPMAAYVNPHGYVHETLTVYKACNLNLIGRPSTEHSWFPGYAATVAQCKICASHIGWKFTATKKDMSPQKFWGLTRSALLPTIPDTEDEISPDKVILCL
notes: mature; not shown: FLAG tag
B2: human CRBN E377A (other, UniProt Q96SW2 1-442, looked up)
chain: B1 chain with E377A, A386W
B3: full length CRBN W400A (CRBN^W400A), FLAG-tagged, re-expressed in DF15R cells (other, human, UniProt Q96SW2 1-442, looked up)
chain: B1 chain with A386W, W400A
notes: mature; not shown: FLAG tag
B4: human CRBN E377V (other, UniProt Q96SW2 1-442, looked up)
chain: B1 chain with E377V, A386W
B5: human CRBN H357A (other, UniProt Q96SW2 1-442, looked up)
chain: B1 chain with H357A, A386W
B6: human WT CRBN (other, UniProt Q96SW2 1-442, looked up)
chain: B1 chain with A386W
notes: also called cereblon; hCRBN

Tests used:
[1] = biological target: T1, DDB1 in DF15R cell extracts (UniProt Q16531 2-1140); test: immunoprecipitation and Western blot from DF15R cell extracts (FIG. 24C)
T1 construct: Co-immunoprecipitated with FLAG-tagged CRBN proteins from cell extracts
T1 sequence (Q16531 2-1140 limits assumed): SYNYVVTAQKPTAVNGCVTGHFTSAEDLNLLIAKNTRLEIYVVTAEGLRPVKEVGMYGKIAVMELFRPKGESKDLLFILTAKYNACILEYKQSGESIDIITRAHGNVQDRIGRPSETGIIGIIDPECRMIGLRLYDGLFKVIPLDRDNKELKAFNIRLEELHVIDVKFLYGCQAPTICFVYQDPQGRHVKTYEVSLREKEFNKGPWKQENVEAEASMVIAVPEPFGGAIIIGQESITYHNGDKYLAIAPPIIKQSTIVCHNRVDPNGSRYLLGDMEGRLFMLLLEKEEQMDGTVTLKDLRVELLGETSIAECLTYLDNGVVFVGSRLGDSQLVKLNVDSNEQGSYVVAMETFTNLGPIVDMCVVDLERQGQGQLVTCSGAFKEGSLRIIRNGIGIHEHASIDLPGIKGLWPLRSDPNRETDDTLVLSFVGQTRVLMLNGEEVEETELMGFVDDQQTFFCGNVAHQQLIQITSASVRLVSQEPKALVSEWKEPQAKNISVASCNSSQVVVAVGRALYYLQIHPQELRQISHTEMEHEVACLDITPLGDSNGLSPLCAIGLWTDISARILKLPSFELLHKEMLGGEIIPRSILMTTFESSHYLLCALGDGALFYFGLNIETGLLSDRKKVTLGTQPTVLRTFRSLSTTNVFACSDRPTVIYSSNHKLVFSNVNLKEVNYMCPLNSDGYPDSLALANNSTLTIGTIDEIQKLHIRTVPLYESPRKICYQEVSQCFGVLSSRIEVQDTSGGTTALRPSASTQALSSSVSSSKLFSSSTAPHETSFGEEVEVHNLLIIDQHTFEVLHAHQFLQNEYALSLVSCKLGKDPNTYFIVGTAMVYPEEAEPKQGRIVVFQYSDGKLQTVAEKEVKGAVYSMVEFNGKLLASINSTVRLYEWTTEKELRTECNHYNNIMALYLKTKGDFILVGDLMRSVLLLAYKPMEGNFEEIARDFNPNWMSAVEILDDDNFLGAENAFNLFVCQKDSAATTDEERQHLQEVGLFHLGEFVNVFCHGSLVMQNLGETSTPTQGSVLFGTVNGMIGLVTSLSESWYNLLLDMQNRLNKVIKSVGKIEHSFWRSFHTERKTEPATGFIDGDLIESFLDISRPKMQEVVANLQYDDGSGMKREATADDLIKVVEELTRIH

full-length human GSPT1 = biological target: T2, full-length human GSPT1 (human, UniProt P15170 1-499); test: CRBN immunoprecipitation in the presence of vehicle or Compound C (FIG. 34A)
T2 construct: mature; limits unknown; also called hGSPT1
T2 sequence (P15170 other isoform, or with tags, fused parts or gaps limits assumed): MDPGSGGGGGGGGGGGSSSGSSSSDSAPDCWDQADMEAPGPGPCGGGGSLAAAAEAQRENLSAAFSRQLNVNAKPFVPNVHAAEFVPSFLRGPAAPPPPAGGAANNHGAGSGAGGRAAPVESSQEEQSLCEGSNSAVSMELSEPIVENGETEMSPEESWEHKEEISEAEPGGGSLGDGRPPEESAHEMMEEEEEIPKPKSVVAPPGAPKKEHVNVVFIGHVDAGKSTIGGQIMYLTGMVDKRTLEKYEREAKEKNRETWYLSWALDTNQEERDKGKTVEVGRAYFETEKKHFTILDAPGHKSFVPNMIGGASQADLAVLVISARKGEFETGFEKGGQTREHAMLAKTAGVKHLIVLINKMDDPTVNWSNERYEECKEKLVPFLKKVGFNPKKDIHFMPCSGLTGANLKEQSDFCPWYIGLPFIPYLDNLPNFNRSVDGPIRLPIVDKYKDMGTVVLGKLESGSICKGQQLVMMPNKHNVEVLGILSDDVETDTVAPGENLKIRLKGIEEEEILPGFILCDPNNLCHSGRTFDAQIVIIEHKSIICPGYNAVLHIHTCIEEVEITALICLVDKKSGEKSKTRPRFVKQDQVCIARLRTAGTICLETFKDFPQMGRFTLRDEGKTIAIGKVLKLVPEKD

human GSPT1 G575N = biological target: T3, human GSPT1 G575N (human, UniProt P15170-3 139-637, limits assumed); test: Compound C-induced in vitro binding of GSPT1 to CRBN (FIG. 31C)
T3 construct: also called G575N mutation in GSPT1
T3 sequence (P15170 whole entry G437N): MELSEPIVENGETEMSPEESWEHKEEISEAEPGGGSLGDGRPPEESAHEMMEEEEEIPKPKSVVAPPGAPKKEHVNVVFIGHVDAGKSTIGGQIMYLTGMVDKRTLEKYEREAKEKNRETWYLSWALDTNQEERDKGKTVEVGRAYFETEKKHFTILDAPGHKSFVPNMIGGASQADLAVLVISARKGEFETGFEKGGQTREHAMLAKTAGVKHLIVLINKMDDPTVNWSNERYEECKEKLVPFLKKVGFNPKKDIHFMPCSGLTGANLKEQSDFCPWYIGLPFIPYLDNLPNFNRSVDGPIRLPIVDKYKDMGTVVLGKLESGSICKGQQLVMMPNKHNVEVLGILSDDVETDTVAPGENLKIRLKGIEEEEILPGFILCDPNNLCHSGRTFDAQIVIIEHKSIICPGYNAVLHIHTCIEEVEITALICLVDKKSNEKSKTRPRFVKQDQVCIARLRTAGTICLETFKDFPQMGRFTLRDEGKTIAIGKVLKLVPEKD

Binder	binding result [1]	binding result (full-length human GSPT1)	also measured
B1	binds		
B2		no binding	
B3	binds		
B4		no binding	
B5		no binding	
B6			binding result (human GSPT1 G575N): no binding
